Test results published in US20050287158A1, “The p65 subunit of nf-kb for the radiosensitization of cells” (Georgetown University, priority 2002, published 2005).

How the values were obtained:
endogenous p65 protein = test: Immunoblot analysis of endogenous p65 protein in DN/CL6 cells; format: cell-based, human; details: DN/CL6 cells (SCC-35 clone expressing p65DN)
Protocol: (§1) Cell culture, Transfection and Clonal Selections: Human head and neck squamous carcinoma cells (SCC-35) were used for the experiments described. These cells have been previously characterized as resistant to ionizing radiation based on clinical and radiobiological parameters (30). Cells were cultured in 10 cm^2 dishes and maintained in Dulbeco modified Eagle's medium supplemented with 10% fetal bovine serum, 2 mML-amino acids. Cells were passaged routinely at 80-90% confluence and checked for mycoplasma contamination at three-month intervals. […] G418 resistant clonal cells were then subcloned and maintained in the complete medium containing G418 (400 μg/ml) as described above. Drug resistant colonies were pooled or subcloned for future studies.
Western blotting: Following exposure to γ-radiation (1-20 Gy) (a ^137Cs J. L. Shepherrd Mark 1 laboratory irradiator) or TNF-α (10 ng/ml) treatment, cell extracts were prepared by using lysis buffer (50 mM Tris-Cl, pH 7.5, 100 mM NaCl, 0.1% NP40, 1 mM PMSF, 10 mg/ml leupeptin, 1 mg/ml aprotinin, 1 mg/ml perpstatin), followed by centrifugation at 12,000×g for 20 minutes. Protein quantities were determined using the BCA protein assay kit (Pierce). Equal amounts of cell extracts were analyzed on 10% SDS-polyacrylamide gels. […]

NF-κB = NF-κB luciferase reporter assay (pNF-κB-Luc); format: cell-based, human; details: DN/CL6 vs SCC-35 cells; IR 20 Gy or TNF-α 10 ng/ml, 6 h
Protocol: Luciferase Reporter Assay: Cells were transiently transfected for 16 h with 5 μg/ml of plasmid DNA by using Lipofectin (Gibco-BRL). Following treatment with ionizing radiation (20 Gy) or TNF-α (10 ng/ml), cells were lysed at 6 h in Reporter Lysis Buffer (Promega), and centrifuged for 2 min at 14,000×g.
To determine whether p65DN inhibits the activation of NF-κB, we transfected DN/CL6 cells with the NF-κB-specific luciferase reporter vector pNF-κB-Luc and then examined the effect of IR or TNF-α on luciferase activity. The stimulatory effects of these agents on NF-κB activity were reduced by a factor of 2 to 3 in DN/CL6 cells compared with those apparent in SCC-35 cells (FIG. 2B). Expression of p65DN thus inhibited NF-κB activation.

SCC-35 cells [1] = test: Apoptotic index after γ-radiation; format: cell-based, human; details: DN/CL6 cells
From the text: Apoptotic Index: Adherent and floating cells were collected at various times after exposure to various doses (1-20 Gy) of gamma radiation (a ^137Cs J. L. Shepherd Mark 1laboratory irradiator) and stained with acridine-orange and ethidium bromide (14). About 600 cells (˜100 cells per field) were scored for the aberrant chromosome organizations under flourescence microscopy. The apoptotic cells=(total number of cells with apoptotic nuclei/total number of cells counted)×100. All values represent the mean±SE of the experiments. All experiments were performed more than three times.
Activation of NF-κB contributes to the protection of many cell types from apoptotic cell death induced by DNA-damaging agents. However, under certain conditions and in certain cell types, activation of NF-κB induces apoptosis (37). Given that clonogenic survival analysis provides a measure of all types of cell death, we next determined the effect of p65DN expression on IR-induced apoptosis. IR induced a dose-dependent increase in the percentage of both SCC-35 and DN/CL6 cells characterized as apoptotic 48 h after irradiation (FIG. 4A). However, whereas the maximum proportion of apoptotic cells was 8% (evident at 20 Gy) for SCC-35 cells, confirming that apoptosis is not a major pathway of cell death in these cells, the maximum apoptotic index was 14% for DN/CL6 cells. The baseline apoptotic index for both cell lines was <1%.

PARP = PARP cleavage by immunoblot after γ-radiation; format: cell-based, human; details: DN/CL6 cells
Protocol: Western blotting: Following exposure to γ-radiation (1-20 Gy) (a ^137Cs J. L. Shepherrd Mark 1 laboratory irradiator) or TNF-α (10 ng/ml) treatment, cell extracts were prepared by using lysis buffer (50 mM Tris-Cl, pH 7.5, 100 mM NaCl, 0.1% NP40, 1 mM PMSF, 10 mg/ml leupeptin, 1 mg/ml aprotinin, 1 mg/ml perpstatin), followed by centrifugation at 12,000×g for 20 minutes. Protein quantities were determined using the BCA protein assay kit (Pierce). Equal amounts of cell extracts were analyzed on 10% SDS-polyacrylamide gels. The transblotted membranes were blocked in PBS containing 5% dry milk for 1 h and probed with specific antibodies, followed by washing with PBST. The membrane was then incubated with horse-radish peroxidase conjugated secondary antibodies for 30-60 minutes washed with PBST, and developed by using the ECL-chemiluminescence detection system (Amersham). Equal loading and transfer of proteins among lanes were confirmed by immunoblot analysis with antibodies to β-actin (Amersham) or by staining the membrane with Ponceau S. Other antibodies used in this study include anti-NF-κB(p65), IκB-α caspases-3, (Santa Cruz Biotechnology, Santa Cruz, Calif.) and PARP (Enzyme Synthesis, Dublin, Calif.). […]

IκB-α = test: Immunoblot analysis of IR-induced IκB-α Ser32 phosphorylation/degradation and nuclear p65; format: cell-based, human; details: DN/CL6 cells
Protocol: Western blotting: Following exposure to γ-radiation (1-20 Gy) (a ^137Cs J. L. Shepherrd Mark 1 laboratory irradiator) or TNF-α (10 ng/ml) treatment, cell extracts were prepared by using lysis buffer (50 mM Tris-Cl, pH 7.5, 100 mM NaCl, 0.1% NP40, 1 mM PMSF, 10 mg/ml leupeptin, 1 mg/ml aprotinin, 1 mg/ml perpstatin), followed by centrifugation at 12,000×g for 20 minutes. Protein quantities were determined using the BCA protein assay kit (Pierce). Equal amounts of cell extracts were analyzed on 10% SDS-polyacrylamide gels. The transblotted membranes were blocked in PBS containing 5% dry milk for 1 h and probed with specific antibodies, followed by washing with PBST. The membrane was then incubated with horse-radish peroxidase conjugated secondary antibodies for 30-60 minutes washed with PBST, and developed by using the ECL-chemiluminescence detection system (Amersham). Equal loading and transfer of proteins among lanes were confirmed by immunoblot analysis with antibodies to β-actin (Amersham) or by staining the membrane with Ponceau S. Other antibodies used in this study include anti-NF-κB(p65), IκB-α caspases-3, (Santa Cruz Biotechnology, Santa Cruz, Calif.) and PARP (Enzyme Synthesis, Dublin, Calif.).
IκB-α binds to both subunits of the p50-p65 heterodimer. We therefore next determined the effect of p65DN expression on IR-induced phosphorylation and subsequent degradation of IκB-αin the cytoplasm. […] This conclusion is consistent with the previous observation that amino acids 1 to 101 of p65 are required for its binding to IκB-α (36). We therefore propose that p65DN interferes with the inhibitory function of IκB-α by binding to this protein in both the cytoplasm and nucleus.

caspase-3 = target: T1, caspase-3 (Homo sapiens, UniProt P42574); test: Caspase-3 activity, fluorogenic substrate assay after IR; format: cell-based; details: DN/CL6 cells, IR 5 Gy
T1 construct: endogenous in cells; host or cells: lysates of SCC-35 and DN/CL6 cells after 5 Gy of IR
T1 sequence (P42574 29-175 limits assumed): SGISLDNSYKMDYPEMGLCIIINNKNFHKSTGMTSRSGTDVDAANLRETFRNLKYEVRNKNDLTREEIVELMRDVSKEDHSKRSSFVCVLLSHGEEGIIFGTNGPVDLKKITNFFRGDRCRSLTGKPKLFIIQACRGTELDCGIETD
Protocol: Measurement of caspase activities—The activity of caspases-3 was assayed fluorometrically with specific fluorogenic substrates: MOCAc-Asp-Glu-Val-Asp-Ala-Pro-Lys(DNP)-NH2 (Peptide Institute, Osaka, Japan) (34). Cell extracts (60 μg of protein) were incubated for 1 h at 37° C. with 600 nM substrate in a reaction mixture (500 μl) containing 10 mM Hepes-NaOH (pH 7.4), 40 mM P-glycerophosphate, 50 mM NaCl, 2 mM MgCl2, 5 mM EGTA, 1 mM DTT, 2 mM ATP, 10 mM creatine phosphate, and creatine kinase (50 μg/ml). The fluorescence of the cleaved substrates was measured with a Hitachi F-4500 spectrophotometer at excitation and emission wavelengths, respectively, of 328 and 393 nm for MOCAc-DEVDAPK(DNP)-NH2.
The nuclear enzyme poly(ADP-ribose) polymerase (PARP), which plays an important role in the repair of DNA damage and in maintenance of genomic integrity (38, 39), is specifically cleaved between its NH2-terminal DNA-binding domain and its multifunctional COOH-terminal domain by caspase-3 or a caspase-3—like protease early during the execution phase of apoptosis (40). We therefore examined the effects of p65DN on both the cleavage of PARP and caspase-3 activity. […] Exposure to 5 Gy of γ-radiation induced a substantial increase in PARP cleavage within 48 h in DN/CL6 cells, whereas cleavage of this enzyme remained barely detectable at 72 h in SCC-35 cells (FIG. 4C).

SCC-35 cells [2] = test: Radiation (clonogenic) survival assay; format: cell-based, human; details: DN/CL6 cells
Protocol: Radiation survival assay: Clonogenic dose response was determined as previously described (32). Briefly, exponentially growing cells were plated in T-25 flasks and exposed to graded doses of ionizing radiation in a ^137Cs J. L. Shepherrd Mark 1 laboratory irradiator with a dose accuracy of ±5%. Physics support for calibration and quality assurance was provided for all experimental protocols. Colony counts were fit to single hit multitarget (SHMT) and the linear quadratic (L-Q) models (33). Data points were obtained from two to three independent experiments in triplicates for each experiment.
Impaired regulation of NF-κB in certain cell types is associated with intrinsic cellular radiosensitivity (14-16). To examine the role of NF-κB in determining cell sensitivity to radiation, we performed clonogenic survival assays after exposure of SCC-35 and DN/CL6 cells to graded doses of γ-radiation (FIG. 3). The sensitivity of DN/CL6 cells to IR was greater than that of the parental SCC-35 cells. According to the single-hit multitarget model (33), D0 values were determined to be 1.9 Gy (with α=0.16 and β=0.02) for SCC-35 cells and 1.2 Gy (with α=0.11 and β=0.06) for DN/CL6 cells. Because of the potential pitfalls of clonal heterogeneity associated with determination of radiation sensitivity in a clonal cell population, we also performed survival experiments with pooled transfected clones.

endogenous p65 mRNA = test: Northern blot analysis of endogenous p65 mRNA in clonal cells expressing p65DN; format: cell-based, human; details: cell clones expressing p65DN
Protocol: as §1
RNA was electrophoresed on a 1% formaldehyde-agarose gel and then transferred to the nitrocellulose membrane, followed by UV cross-linking. The membrane was hybridized with γ-^32P-dATP labeled cDNA probes for 16 h, washed, and autoradiographed.
To investigate the effects of targeting p65 as a means of disrupting NF-κB activation, we transfected radioresistant human squamous carcinoma SCC-35 cells with an expression vector encoding amino acids 1 to 84 of human p65 (p65DN). The resulting G418-resistant colonies were isolated and analyzed for expression of p65DN and endogenous p65. […]

B1: p65DN: dominant negative fragment, amino acids 1 to 84 of human p65 (RelA), expressed from vector pCR3.1 in SCC-35 cells (clone DN/CL6) (protein)
chain: MDELFPLIFPAEPAQASGPYVEIIEQPKQRGMRFRYKCEGRSAGSIPGERSTDTTKTHPTIKINGYTGPGTVRISLVTKDPPHR
With B1 the “reduction of the amount of endogenous p65 protein compared with parental SCC-35 cells” value (endogenous p65 protein) was 75%, the “factor of reduction of stimulatory effects of IR or TNF-α on NF-κB (luciferase) activity” value (NF-κB) was 2 to 3 and the “time at which substantial increase in apoptotic index was apparent” value (SCC-35 cells [1]; 5 Gy γ-radiation) was 24 h. For the same molecule, the maximum apoptotic index (SCC-35 cells [1]; 48 h after irradiation, 2-20 Gy) was 14%, the baseline apoptotic index (SCC-35 cells [1]; no irradiation) was < 1% and the “time to substantial increase in PARP cleavage” value (PARP; 5 Gy γ-radiation) was ≤ 48 h. The “γ-radiation dose resulting in PARP cleavage” value (PARP; data not shown) was ≤ 2 Gy, the “amount of p65 in the nucleus after irradiation” value (IκB-α; IR) was “decrease” and the “IR-induced phosphorylation of IκB-α on Ser32” value (IκB-α; at 3 h after irradiation) was “remained markedly increased”. The “time after irradiation without detectable degradation of IκB-α” value (IκB-α; parental cells degraded within 1 h) was “up to 3 h”, the “IR-induced activation of caspase-3 compared with SCC-35 cells” value (caspase-3) was “earlier and more pronounced activation” and the α (SCC-35 cells [2]; clonogenic survival fit) was 0.11. The β (SCC-35 cells [2]; clonogenic survival fit) was 0.06, the D0 (SCC-35 cells [2]; single-hit multitarget model, graded γ-radiation doses) was 1.2 Gy and the “amount of endogenous p65 mRNA compared with parental SCC-35 cells” value (endogenous p65 mRNA) was “reduced”.
